Here are results for 15 molecules from patent US10941182 (Amgen, dated 2021).

Starred links: 1 amine or outer side, 2 acyl side, 3 side chain; linkers in the order of their positions; H or OH if unused. Non-standard residues stand in square brackets, D forms with d. Primed or numbered codes have the meaning given here. No end group written: not given here. *: point of attachment. dBip = N[C@H](Cc1ccc(-c2ccccc2)cc1)C(=O)O; BhLeu = source's own code, no definition; BhPhe = source's own code, no definition; Oic = O=C(O)[C@@H]1C[C@@H]2CCCC[C@@H]2N1; Phe(4-Cl) = N[C@@H](Cc1ccc(Cl)cc1)C(=O)O; dPhe(4-Cl) = N[C@H](Cc1ccc(Cl)cc1)C(=O)O; Phe(4-I) = N[C@@H](Cc1ccc(I)cc1)C(=O)O; γGlu = O=C(O)[C@H](CCC(=O)[*:2])N[*:1]; d1Nal = N[C@H](Cc1cccc2ccccc12)C(=O)O; NMeR = CN[C@@H](CCCNC(=N)N)C(=O)O; Tridecanoyl = CCCCCCCCCCCCC(=O)*; hArg = N=C(N)NCCCC[C@H](N)C(=O)O; Cha = N[C@@H](CC1CCCCC1)C(=O)O; NMeL = CN[C@@H](CC(C)C)C(=O)O; AC4Abu″ = not defined here; code O = not defined here; Nle = CCCC[C@H](N)C(=O)O; AEEA = NCCOCCOCC(=O)O; βAla = NCCC(=O)O

The chains are these.
B1: apelin polypeptide SEQ ID NO: 97 (peptide)
peptide: KFRRQRP[hArg][Cha]SHKG[Oic][Nle]P[Phe(4-Cl)]-OH
modifications: not fully specified (N-terminus); printed as [MerPr](20K mPEGacetamide)KFRRQRP[hArg][Cha]SHKG[Oic][Nle]P[4-Cl-F]{COOH}; also: 20K mPEG acetamide conjugate on MerPr
B2: apelin polypeptide SEQ ID NO: 56 (peptide)
peptide: Ac-[hArg][hArg]Q[hArg]P[NMeR][Cha]SHKG[Oic][Nle]P[Phe(4-Cl)]-OH
SMILES: CCCC[C@H](NC(=O)[C@@H]1C[C@@H]2CCCC[C@@H]2N1C(=O)CNC(=O)[C@H](CCCCN)NC(=O)[C@H](Cc1c[nH]cn1)NC(=O)[C@H](CO)NC(=O)[C@H](CC1CCCCC1)NC(=O)[C@H](CCCNC(=N)N)N(C)C(=O)[C@@H]1CCCN1C(=O)[C@H](CCCCNC(=N)N)NC(=O)[C@H](CCC(N)=O)NC(=O)[C@H](CCCCNC(=N)N)NC(=O)[C@H](CCCCNC(=N)N)NC(C)=O)C(=O)N1CCC[C@H]1C(=O)N[C@@H](Cc1ccc(Cl)cc1)C(=O)O
B3: apelin polypeptide SEQ ID NO: 686 (peptide)
peptide: [code O][BhPhe][hArg][hArg]Q[hArg]P[hArg][Cha]SHKG[Oic][Nle]P[Phe(4-Cl)]
modifications: reading uncertain; also: printed as O[BhPhe][hArg][hArg]Q[hArg]P[hArg][Cha]SHKG[Oic][Nle]P[4-Cl-F]
B4: apelin polypeptide SEQ ID NO: 692 (peptide)
peptide: [code O]F[hArg][hArg][BhLeu][hArg]P[hArg][Cha]SHKG[Oic][Nle]P[Phe(4-Cl)]
modifications: reading uncertain; also: printed as OF[hArg][hArg][BhLeu][hArg]P[hArg][Cha]SHKG[Oic][Nle]P[4-Cl-F]
B5: apelin polypeptide SEQ ID NO: 708 (peptide)
peptide: [code O]F[hArg][hArg]Q[hArg]P[hArg][Cha]SHKG[Oic][βAla]P[Phe(4-Cl)]
modifications: reading uncertain; also: printed as OF[hArg][hArg]Q[hArg]P[hArg][Cha]SHKG[Oic][bAla]P[4-Cl-F]
B6: SEQ ID NO: 324 (peptide)
peptide: Tridecanoyl-[γGlu][AEEA][AEEA][hArg][dR]Q[hArg]P[dR][NMeL]SA[Nle]G[Oic][Phe(4-I)]P[dBip]-OH
SMILES: CCCCCCCCCCCCC(=O)N[C@@H](CCC(=O)NCCOCCOCC(=O)NCCOCCOCC(=O)N[C@@H](CCCCNC(=N)N)C(=O)N[C@H](CCCNC(=N)N)C(=O)N[C@@H](CCC(N)=O)C(=O)N[C@@H](CCCCNC(=N)N)C(=O)N1CCC[C@H]1C(=O)N[C@H](CCCNC(=N)N)C(=O)N(C)[C@@H](CC(C)C)C(=O)N[C@@H](CO)C(=O)N[C@@H](C)C(=O)N[C@@H](CCCC)C(=O)NCC(=O)N1[C@H](C(=O)N[C@@H](Cc2ccc(I)cc2)C(=O)N2CCC[C@H]2C(=O)N[C@H](Cc2ccc(-c3ccccc3)cc2)C(=O)O)C[C@@H]2CCCC[C@@H]21)C(=O)O
B7: SEQ ID NO: 322 (peptide)
peptide: Tridecanoyl-[γGlu][AEEA][AEEA][hArg][dR]Q[Nle]P[dR][NMeL]AHKG[Oic][Phe(4-I)]P[dBip]-OH
SMILES: CCCCCCCCCCCCC(=O)N[C@@H](CCC(=O)NCCOCCOCC(=O)NCCOCCOCC(=O)N[C@@H](CCCCNC(=N)N)C(=O)N[C@H](CCCNC(=N)N)C(=O)N[C@@H](CCC(N)=O)C(=O)N[C@@H](CCCC)C(=O)N1CCC[C@H]1C(=O)N[C@H](CCCNC(=N)N)C(=O)N(C)[C@@H](CC(C)C)C(=O)N[C@@H](C)C(=O)N[C@@H](Cc1c[nH]cn1)C(=O)N[C@@H](CCCCN)C(=O)NCC(=O)N1[C@H](C(=O)N[C@@H](Cc2ccc(I)cc2)C(=O)N2CCC[C@H]2C(=O)N[C@H](Cc2ccc(-c3ccccc3)cc2)C(=O)O)C[C@@H]2CCCC[C@@H]21)C(=O)O
B8: SEQ ID NO: 318 (peptide)
peptide: Tridecanoyl-[γGlu][AEEA][AEEA][hArg][dR]Q[hArg]P[dR][NMeL]AH[Nle]G[Oic][Phe(4-I)]P[dBip]-OH
SMILES: CCCCCCCCCCCCC(=O)N[C@@H](CCC(=O)NCCOCCOCC(=O)NCCOCCOCC(=O)N[C@@H](CCCCNC(=N)N)C(=O)N[C@H](CCCNC(=N)N)C(=O)N[C@@H](CCC(N)=O)C(=O)N[C@@H](CCCCNC(=N)N)C(=O)N1CCC[C@H]1C(=O)N[C@H](CCCNC(=N)N)C(=O)N(C)[C@@H](CC(C)C)C(=O)N[C@@H](C)C(=O)N[C@@H](Cc1c[nH]cn1)C(=O)N[C@@H](CCCC)C(=O)NCC(=O)N1[C@H](C(=O)N[C@@H](Cc2ccc(I)cc2)C(=O)N2CCC[C@H]2C(=O)N[C@H](Cc2ccc(-c3ccccc3)cc2)C(=O)O)C[C@@H]2CCCC[C@@H]21)C(=O)O
B9: SEQ ID NO: 312 (peptide)
peptide: Tridecanoyl-[γGlu][AEEA][AEEA][hArg][dR]Q[hArg]P[dR][NMeL]SH[Nle]G[Oic][Phe(4-I)]P[dBip]-OH
SMILES: CCCCCCCCCCCCC(=O)N[C@@H](CCC(=O)NCCOCCOCC(=O)NCCOCCOCC(=O)N[C@@H](CCCCNC(=N)N)C(=O)N[C@H](CCCNC(=N)N)C(=O)N[C@@H](CCC(N)=O)C(=O)N[C@@H](CCCCNC(=N)N)C(=O)N1CCC[C@H]1C(=O)N[C@H](CCCNC(=N)N)C(=O)N(C)[C@@H](CC(C)C)C(=O)N[C@@H](CO)C(=O)N[C@@H](Cc1c[nH]cn1)C(=O)N[C@@H](CCCC)C(=O)NCC(=O)N1[C@H](C(=O)N[C@@H](Cc2ccc(I)cc2)C(=O)N2CCC[C@H]2C(=O)N[C@H](Cc2ccc(-c3ccccc3)cc2)C(=O)O)C[C@@H]2CCCC[C@@H]21)C(=O)O
B10: SEQ ID NO: 334 (peptide)
peptide: Tridecanoyl-[γGlu][AEEA][AEEA][hArg][dR]Q[Nle]P[dR][NMeL]AAKG[Oic][Phe(4-I)]P[dBip]-OH
SMILES: CCCCCCCCCCCCC(=O)N[C@@H](CCC(=O)NCCOCCOCC(=O)NCCOCCOCC(=O)N[C@@H](CCCCNC(=N)N)C(=O)N[C@H](CCCNC(=N)N)C(=O)N[C@@H](CCC(N)=O)C(=O)N[C@@H](CCCC)C(=O)N1CCC[C@H]1C(=O)N[C@H](CCCNC(=N)N)C(=O)N(C)[C@@H](CC(C)C)C(=O)N[C@@H](C)C(=O)N[C@@H](C)C(=O)N[C@@H](CCCCN)C(=O)NCC(=O)N1[C@H](C(=O)N[C@@H](Cc2ccc(I)cc2)C(=O)N2CCC[C@H]2C(=O)N[C@H](Cc2ccc(-c3ccccc3)cc2)C(=O)O)C[C@@H]2CCCC[C@@H]21)C(=O)O
B11: SEQ ID NO: 330 (peptide)
peptide: Tridecanoyl-[γGlu][AEEA][AEEA][hArg][dR]Q[hArg]P[dR][NMeL]AA[Nle]G[Oic][Phe(4-I)]P[dBip]-OH
SMILES: CCCCCCCCCCCCC(=O)N[C@@H](CCC(=O)NCCOCCOCC(=O)NCCOCCOCC(=O)N[C@@H](CCCCNC(=N)N)C(=O)N[C@H](CCCNC(=N)N)C(=O)N[C@@H](CCC(N)=O)C(=O)N[C@@H](CCCCNC(=N)N)C(=O)N1CCC[C@H]1C(=O)N[C@H](CCCNC(=N)N)C(=O)N(C)[C@@H](CC(C)C)C(=O)N[C@@H](C)C(=O)N[C@@H](C)C(=O)N[C@@H](CCCC)C(=O)NCC(=O)N1[C@H](C(=O)N[C@@H](Cc2ccc(I)cc2)C(=O)N2CCC[C@H]2C(=O)N[C@H](Cc2ccc(-c3ccccc3)cc2)C(=O)O)C[C@@H]2CCCC[C@@H]21)C(=O)O

In the first assay the target is T1, rat APJ receptor (rat, UniProt Q9JHG3 1-377).
T1 sequence (looked up): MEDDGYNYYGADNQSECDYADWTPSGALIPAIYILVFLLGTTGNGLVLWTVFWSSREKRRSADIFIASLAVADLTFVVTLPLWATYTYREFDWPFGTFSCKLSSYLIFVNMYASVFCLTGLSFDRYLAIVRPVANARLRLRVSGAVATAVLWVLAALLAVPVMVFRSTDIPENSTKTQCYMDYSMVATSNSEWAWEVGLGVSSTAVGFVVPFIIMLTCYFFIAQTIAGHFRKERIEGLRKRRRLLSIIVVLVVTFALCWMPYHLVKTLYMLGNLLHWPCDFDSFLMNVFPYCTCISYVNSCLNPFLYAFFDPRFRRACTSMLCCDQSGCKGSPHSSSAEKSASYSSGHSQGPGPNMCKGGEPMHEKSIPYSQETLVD
Kind of assay: cell-based or functional assay.
As to B1, the “EC50 Rat APJ Receptor” value came out at 0.253 nM.

In the case of B2, the “EC50 Rat APJ Receptor” value amounted to 0.915 nM.

With B3, the “EC50 Rat APJ Receptor” value was 0.188 nM.

For B4, the “EC50 Rat APJ Receptor” value is 0.503 nM.

For Tridecanoyl-[AC4Abu″][AEEA][AEEA][hArg]Q[dR]P[NMeR][Cha]SHKG[Oic][Nle]P[dPhe(4-Cl)]-OH (reading uncertain) [apelin polypeptide SEQ ID NO: 230], the “EC50 Rat APJ Receptor” value came out at 13.8 nM.

Take Tridecanoyl-[AC4Abu″][AEEA][AEEA][hArg]Q[dR]P[NMeR][Cha]SHKG[Oic][Nle][d1Nal]-OH (reading uncertain) [apelin polypeptide SEQ ID NO: 165]: the “EC50 Rat APJ Receptor” value was 30.3 nM.

The next assay deals with T2, human APJ receptor (human, UniProt P35414 1-380).
T2 sequence (looked up): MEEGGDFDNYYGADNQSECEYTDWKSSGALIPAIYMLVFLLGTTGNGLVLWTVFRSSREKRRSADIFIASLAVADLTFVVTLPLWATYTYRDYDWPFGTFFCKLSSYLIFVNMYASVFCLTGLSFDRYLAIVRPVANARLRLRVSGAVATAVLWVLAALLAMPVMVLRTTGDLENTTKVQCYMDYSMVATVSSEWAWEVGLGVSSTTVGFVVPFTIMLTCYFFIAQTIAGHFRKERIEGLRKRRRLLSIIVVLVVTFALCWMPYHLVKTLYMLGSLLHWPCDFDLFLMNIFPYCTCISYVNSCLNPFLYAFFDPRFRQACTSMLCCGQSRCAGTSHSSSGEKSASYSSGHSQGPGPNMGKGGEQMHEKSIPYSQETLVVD
The assay can be described thus: cell-based or functional assay.
Turning to Tridecanoyl-[AC4Abu″][AEEA][AEEA]RQRP[hArg][NMeL]SHKG[Oic][Phe(4-I)]P[dBip]-OH (reading uncertain) [apelin polypeptide SEQ ID NO: 212], the “EC50 Human APJ Receptor” value worked out at 0.515 nM.

For the molecule [hArg]Q[hArg]P[NMeR][Cha]SHKG[Oic][Nle]P[Phe(4-Cl)] [apelin polypeptide SEQ ID NO: 674], the “EC50 Human APJ Receptor” value came to 0.152 nM.

Consider B5, for which the “EC50 Human APJ Receptor” value is 7.46 nM.

A further assay addresses T3, rat APJ receptor (rat, UniProt Q9JHG3 1-377).
T3 sequence (looked up): T1 sequence (looked up)
The assay can be described thus: cell-based or functional assay.
As for B6, the “EC50 Rat APJ Receptor” value came out at 20.4 nM.

In the case of B7, the “EC50 Rat APJ Receptor” value worked out at 26.5 nM.

As for B8, the “EC50 Rat APJ Receptor” value was determined as 45.9 nM.

Take B9: the “EC50 Rat APJ Receptor” value was 10.6 nM.

Consider B10, for which the “EC50 Rat APJ Receptor” value was determined as 44.7 nM.

For B11, the “EC50 Rat APJ Receptor” value was determined as 56.1 nM.

A further assay deals with T4, human APJ receptor (human, UniProt P35414 1-380).
T4 sequence (looked up): T2 sequence (looked up)
The assay can be described thus: cell-based or functional assay.
For the molecule B6, the “EC50 Human APJ Receptor” value turned out to be 14.9 nM.

B7: the “EC50 Human APJ Receptor” value turned out to be 16.3 nM.

For B8, the “EC50 Human APJ Receptor” value stood at 7.44 nM.

In the case of B9, the “EC50 Human APJ Receptor” value was 13.6 nM.

For B10, the “EC50 Human APJ Receptor” value stood at 34.1 nM.

In the case of B11, the “EC50 Human APJ Receptor” value came to 39.7 nM.
